According to paper doi:10.1101/2025.10.27.684836 (bioRxiv, 2025):

Assays:
[1] = target: His-MBP-SALL4(QID-ZFC4) fusion protein (mouse); experiment: SEC-MALS
SALL4 QID-ZFC4 = target: T1, SALL4 QID-ZFC4 (UniProt Q8BX22 201-240+870-940, internal_change); experiment: SPR
T1 sequence: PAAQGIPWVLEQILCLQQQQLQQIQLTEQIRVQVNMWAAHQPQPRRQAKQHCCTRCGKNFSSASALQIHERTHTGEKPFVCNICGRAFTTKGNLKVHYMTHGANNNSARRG

SEC-MALS = target: the molecule itself; experiment: SEC-MALS

Molecule: His-MBP-SALL4(QID-ZFC4) fusion protein (domain or fragment)
- stoichiometry N [1]: 4

B1: SPR probe, single ATATTA motif (dsDNA)
DNA 1: AGCAGGCCTAATATCGCAC
DNA 2: GTGCGATATTAGGCCTGCT
- binding result (SALL4 QID-ZFC4): binds

B2: recombinant SALL4 QID (192-237) peptide (domain or fragment, mouse, UniProt Q8BX22 192-237, looked up)
chain: GAEAPMAPMPAAQGIPWVLEQILCLQQQQLQQIQLTEQIRVQVNMW
- stoichiometry N (SEC-MALS): 4
